# Measured values published in paper PMC4939597, “Mechanism for insulin-like peptide 5 distinguishing the homologous relaxin family peptide receptor 3 and 4” (Scientific Reports, 2016).
# No end group written: not given here.
# Legend:
# human RXFP3 [1] = molecular target: T1, human RXFP3 (Homo sapiens, UniProt Q9NSD7); assay: Receptor binding assay, competition with NanoLuc-conjugated R3/I5 tracer
# T1 construct: expressed in transfected cells; host or cells: HEK293T
# T1 sequence (Q9NSD7 1-469): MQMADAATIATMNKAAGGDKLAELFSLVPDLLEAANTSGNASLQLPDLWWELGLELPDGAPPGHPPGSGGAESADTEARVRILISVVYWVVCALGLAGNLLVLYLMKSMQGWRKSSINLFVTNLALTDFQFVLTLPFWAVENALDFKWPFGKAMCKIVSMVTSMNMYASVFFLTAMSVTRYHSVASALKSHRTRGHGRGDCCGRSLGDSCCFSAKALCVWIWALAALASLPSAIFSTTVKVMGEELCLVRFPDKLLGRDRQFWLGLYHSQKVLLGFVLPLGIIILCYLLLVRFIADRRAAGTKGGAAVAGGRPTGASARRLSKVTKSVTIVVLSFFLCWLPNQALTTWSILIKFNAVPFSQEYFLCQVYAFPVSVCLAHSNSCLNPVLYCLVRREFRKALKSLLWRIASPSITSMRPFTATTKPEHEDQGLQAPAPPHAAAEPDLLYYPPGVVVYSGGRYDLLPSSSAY
# How it was run: (§1)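 HEK293T cells transiently expressing human RXFP3 or RXFP4 were incubated with 0.5 nM NanoLuc-conjugated R3/I5 tracer plus competitor in serum-free DMEM with 1% BSA, 2 h at 21 °C. Nonspecific binding used 1.0 μM human relaxin-3. After washing and lysis, bioluminescence was read and curves fitted sigmoidally (n = 3).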
# human RXFP4 [2] = molecular target: T2, human RXFP4 (Homo sapiens, UniProt Q8TDU9); assay: as above
# T2 construct: expressed in transfected cells; host or cells: HEK293T
# T2 sequence (Q8TDU9 whole entry): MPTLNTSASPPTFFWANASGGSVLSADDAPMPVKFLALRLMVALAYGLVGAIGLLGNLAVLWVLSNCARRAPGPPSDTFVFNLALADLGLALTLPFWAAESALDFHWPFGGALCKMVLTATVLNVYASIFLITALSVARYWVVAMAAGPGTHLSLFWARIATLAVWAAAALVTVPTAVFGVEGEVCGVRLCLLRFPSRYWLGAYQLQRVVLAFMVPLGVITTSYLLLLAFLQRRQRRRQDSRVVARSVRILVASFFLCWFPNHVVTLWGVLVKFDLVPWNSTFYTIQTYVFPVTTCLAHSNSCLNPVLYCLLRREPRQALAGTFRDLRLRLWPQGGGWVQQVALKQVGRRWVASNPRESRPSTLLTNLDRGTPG
# How it was run: as §1
# human RXFP3 [3] = molecular target: T1, human RXFP3; assay: Receptor activation assay, CRE-controlled NanoLuc reporter; assay type: cell-based
# human RXFP4 [4] = molecular target: T2, human RXFP4; assay: as above; assay type: cell-based
substance,measurement,setting,value
"[A(B20)G,S(B21)G]INSL5: recombinant mature two-chain INSL5 mutant (Insulin-like peptide INSL5 B … KESVRLCGLEYIRTVIYICGGSRW; Insulin-like peptide INSL5 A … QDLQTLCCTDGCSMTDLSALC; not fully specified; ends and bridges not checked; UniProt Q9Y5Q6 23-46; Q9Y5Q6 115-135, looked up, variant A20G S21G)",pIC50 RXFP3,"human RXFP3 [1]; HEK293T cells transiently overexpressing human RXFP3, 0.5 nM NanoLuc-conjugated R3/I5 tracer, 21 °C, 2 h, mean ± SE, n = 3, SEM",6.01 ± 0.06
same,fold lower binding potency towards RXFP3 compared with wild-type INSL5,human RXFP3 [1]; lower than wild-type INSL5,~ 18 fold
same,pIC50 RXFP4,"human RXFP4 [2]; HEK293T cells transiently overexpressing human RXFP4, 0.5 nM NanoLuc-conjugated R3/I5 tracer, 21 °C, 2 h, mean ± SE, n = 3, SEM",6.39 ± 0.05
same,fold lower binding potency towards RXFP4 compared with wild-type INSL5,human RXFP4 [2]; lower than wild-type INSL5,~ 23 fold
same,pEC50 RXFP3,"human RXFP3 [3]; HEK293T cells cotransfected with human RXFP3 and CRE-controlled NanoLuc reporter, 1.0 μM forskolin, 37 °C, 4 h, mean ± SE, n = 3, N.D., not detectable, SEM",6.90 ± 0.04
same,fold lower activation potency towards RXFP3 than relaxin-3,human RXFP3 [3]; lower than relaxin-3,~ 5000 fold
same,pEC50 RXFP4,"human RXFP4 [4]; HEK293T cells cotransfected with human RXFP4 and CRE-controlled NanoLuc reporter, 1.0 μM forskolin, 37 °C, 4 h, mean ± SE, n = 3, SEM",8.59 ± 0.05
same,fold lower activation potency towards RXFP4 compared with INSL5,human RXFP4 [4]; lower than wild-type INSL5,~ 6 fold
